From PMC6801647, “Crystal Structure of Kluyveromyces lactis Glucokinase (KlGlk1)” (International Journal of Molecular Sciences, 2019)

What was measured:
[1] = target: Kluyveromyces lactis glucokinase (KlGlk1) (Kluyveromyces lactis) (UniProt Q6CUZ3); test: SEC-MALS; size-exclusion chromatography (Superdex 200 Increase 10/300 GL) coupled to right-angle/low-angle light scattering (RALS/LALS) and refractive index, OMNISEC REVEAL; 50 mM Tris pH 7.8, 200 mM NaCl, 5 mM beta-ME
[2] = substrate: Nc1ncnc2c1ncn2[C@@H]1O[C@H](COP(=O)(O)OP(=O)(O)OP(=O)(O)O)[C@@H](O)[C@H]1O; test: G6PD-coupled assay, fit over ATP range preceding substrate inhibition; assay type: biochemical, Kluyveromyces lactis; conditions: 0.5 mM glucose, 5 mM MgCl2, 50 mM KCl, 250 mM sucrose, 20 mM Tris-HCl pH 7.4, 37 °C, Hill coefficient 1.97 at low ATP, substrate inhibition from 0.25 mM ATP

Kluyveromyces lactis glucokinase (KlGlk1) (from UniProt Q6CUZ3 49-481) (enzyme)
stoichiometry N [1]: 2

B1: KlGlk1 (Kluyveromyces lactis NRRL Y-1140) (protein)
chain: SDPKLTKAVDSICDQFIVTKSKISQLTEYFIDCMEKGLEPCESDISQNKGLPMIPTFVTDKPSGQEHGVTMLAADLGGTNFRVCSVELLGNHEFKIEQEKSKIPTFFFQDDHHVTSKDLFQHMALITHQFLTKHHKDVIQDYKWKMGFTFSYPVDQTSLSSGKLIRWTKGFKIGDTVGQDVVQLFQQELNDIGLSNVHVVALTNDTTGTLLARCYASSDAARAINEPVIGCIFGTGTNGCYMEKLENIHKLDPASREELLSQGKTHMCINTEWGSFDNELNHLPTTSYDIKIDQQFSTNPGFHLFEKRVSGLYLGEILRNILLDLEKQELFDLKESVLKNNPFILTTETLSHIEIDTVENDLQDTRDALLKAADLETTFEERVLIQKLVRAISRRAAFLAAVPIAAILIKTNALNQSYHCQVEVGCDGSVVEHYPGFRSMMRHALALSPIGPEGERDVHLRISKDGSGVGAALCALHANY
notes: codon-optimized synthetic gene in pET24d, E. coli BL21 (DE3); N-terminal His-tag removed with TEV protease; dimer in solution (100 kDa apparent); crystal model residues 2-481
Km [2]: 150 µM
kcat [2]: 400 s⁻¹
